Experimental data: US20220169693A1, “Screening Assays, Modulators and Modulation of Intracellular Signalling Mediated by Immunoglobulin Superfamily Cell Adhesion Molecules” (Monash University, priority 2018, published 2022)

Key:
Type in all cases: cell-based
[1] = molecular target: T1, full length murine ALCAM1-583 (Mus musculus, UniProt Q61490); assay: Ang II-induced p65/PCNA expression in AT1R-CHO cells transfected with full length murine ALCAM (qRT-PCR)
T1 construct: host or cells: AT1R-CHO (CHO stably transfected with human AT1R-Rluc8), transient transfection; untagged clone in pCMV6
T1 sequence (Q61490 28-583): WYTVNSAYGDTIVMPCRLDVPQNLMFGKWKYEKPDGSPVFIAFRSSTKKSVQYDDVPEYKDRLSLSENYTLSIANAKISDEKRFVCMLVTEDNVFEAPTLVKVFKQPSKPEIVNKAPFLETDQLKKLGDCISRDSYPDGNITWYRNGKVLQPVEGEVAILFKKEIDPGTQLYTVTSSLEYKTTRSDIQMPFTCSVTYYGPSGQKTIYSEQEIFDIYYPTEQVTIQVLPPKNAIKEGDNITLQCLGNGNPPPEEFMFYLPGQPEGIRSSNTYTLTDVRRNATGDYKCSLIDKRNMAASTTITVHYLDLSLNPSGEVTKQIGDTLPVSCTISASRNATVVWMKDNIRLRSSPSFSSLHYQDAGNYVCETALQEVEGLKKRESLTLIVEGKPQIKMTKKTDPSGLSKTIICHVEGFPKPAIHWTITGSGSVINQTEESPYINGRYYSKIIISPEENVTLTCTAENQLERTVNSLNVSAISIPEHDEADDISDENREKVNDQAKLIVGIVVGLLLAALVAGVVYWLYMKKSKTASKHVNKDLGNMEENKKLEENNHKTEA
Procedure: (§1) Adult retinal pigment epithelial (ARPE) cells were cultured in Dulbecco's modified Eagle's medium (DMEM)/F12 endothelial cell growth supplement (ECGS) supplemented media. Chinese Hamster Ovary (CHO) cells were cultured using F12 media (10% FCS with 2 mM glutamine). Human microvascular endothelial cells (HMEC) were cultured in MCDB 131 medium (10% FCS with 10 mM glutamine, EGF and hydrocortisone).
(§2) 100 ng of AT1R-Rluc8 construct was transfected into CHO cells using Lipofectamine 2000 (Thermo). Stable transfectants were selected using G418. AT1R-CHO were then transiently transfected with the IgSF CAM and/or RAGE constructs using Lipofectamine 2000 (Invitrogen) and incubated for 16h.
(§3) Oligonucleotides were designed and ordered to generate the ALCAM, BCAM and MCAM intracellular (cytosolic) domains. These included a 5′ NheI site, Kozak sequence and initiating Methionine and then DNA sequences corresponding to ALCAM residues 552-583, BCAM residues 569-628 and MCAM residues 584-637 respectively (Note that as residue 551 of ALCAM is Methionine, the cytosolic tail of ALCAM effectively corresponded to residues 551-583). The pCIneo parental vector was digested with NheI and NotI restriction enzymes, and the DNA of the fragments of the ALCAM, BCAM and MCAM tails/cytosolic domains were ligated into the digested plasmid. After transformation and recovery, colonies were screened and individual clones sequenced. The sequence of the insert was confirmed by DNA sequencing (Micromon, Monash University). A full-length clone of Mouse ALCAM (BC027280) was purchased from Origene. The untagged clone was supplied in the vector pCMV6. […]
(§4) After 2 hours of exposure to Ang II (1 μM) cells were placed in Trizol, mRNA extracted and cDNA synthesized. Changes in the gene expression of the NFκB subunit, p65 (RelA) or NFκB-activated target genes (e.g ICAM-1) were estimated by quantitative real-time RT-PCR, performed using the TaqMan system based on real-time detection of accumulated fluorescence (ABI Prism 7700, Perkin-Elmer Inc, PE Biosystems, Foster City, Calif., USA). […]

[2] = system: full length chicken EpCAM; assay: Ang II-induced p65 expression in AT1R-CHO cells transfected with full length chicken EpCAM; settings: Ang II 1 μM, co-transfection (FIG. 3D)
Sequence of full length chicken EpCAM (as listed by the source): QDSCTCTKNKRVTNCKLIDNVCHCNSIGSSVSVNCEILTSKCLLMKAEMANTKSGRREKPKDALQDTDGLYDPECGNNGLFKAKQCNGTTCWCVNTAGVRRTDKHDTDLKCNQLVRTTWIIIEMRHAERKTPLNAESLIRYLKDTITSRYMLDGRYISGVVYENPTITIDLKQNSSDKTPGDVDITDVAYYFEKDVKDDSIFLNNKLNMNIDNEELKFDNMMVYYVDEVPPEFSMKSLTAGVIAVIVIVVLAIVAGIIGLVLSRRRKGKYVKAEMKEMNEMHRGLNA
Procedure: as §1, §2
After 2 hours of exposure to Ang II (1 μM) cells were placed in Trizol, mRNA extracted and cDNA synthesized. Changes in the gene expression of the NFκB subunit, p65 (RelA) or NFκB-activated target genes (e.g ICAM-1) were estimated by quantitative real-time RT-PCR, performed using the TaqMan system based on real-time detection of accumulated fluorescence (ABI Prism 7700, Perkin-Elmer Inc, PE Biosystems, Foster City, Calif., USA). Gene expression was normalized to 18S mRNA and reported as fold change compared to the level of expression in untreated control mice/cells, which were given an arbitrary value of 1.

[3] = molecular target: T2, full length RAGE1-404 transactivated by C5a receptor 1 (Homo sapiens, UniProt Q15109); assay: C5a-induced ICAM-1 expression in ARPE cells transfected with C5aR1 and full length RAGE; settings: C5a 1 μM, co-expression (FIG. 6B)
T2 construct: expressed in transfected cells; host or cells: human ARPE (adult retinal pigment epithelial) cells
T2 sequence (Q15109 23-404): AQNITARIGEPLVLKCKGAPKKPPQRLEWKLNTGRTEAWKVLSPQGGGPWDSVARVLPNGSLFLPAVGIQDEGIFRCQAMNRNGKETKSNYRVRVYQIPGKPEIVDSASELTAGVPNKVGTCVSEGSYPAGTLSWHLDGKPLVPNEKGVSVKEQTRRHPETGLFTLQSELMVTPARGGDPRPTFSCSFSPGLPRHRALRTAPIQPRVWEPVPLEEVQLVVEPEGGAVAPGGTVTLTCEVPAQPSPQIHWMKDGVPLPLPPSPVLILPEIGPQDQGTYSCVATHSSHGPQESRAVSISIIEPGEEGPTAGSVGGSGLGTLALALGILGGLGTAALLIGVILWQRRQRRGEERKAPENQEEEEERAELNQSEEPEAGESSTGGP

[4] = molecular target: T1, full length murine ALCAM1-583; assay: S100A8/A9-induced PCNA expression in CHO cells transfected with full length murine ALCAM; settings: S100A8/A9 1 μM 2 h, co-transfection (FIG. 4A)
Procedure: as §1
as §3, with “plasmid.” for “plasmid. After transformation and recovery, colonies were screened and individual clones sequenced. The sequence of the insert was confirmed by DNA sequencing (Micromon, Monash University). A full-length clone of Mouse ALCAM (BC027280) was purchased from Origene. The untagged clone was supplied in the vector pCMV6.”
as §4, with “After 2 hours of exposure to Ang II (1 μM) cells were placed in Trizol, mRNA extracted and cDNA synthesized.” left out

full length RAGE1-404 = full length RAGE1-404 (Homo sapiens, UniProt Q15109); assay: S100A8/A9-induced PCNA expression in CHO cells transfected with full length RAGE; set-up: expressed in transfected cells; host or cells: CHO cells; settings: S100A8/A9 1 μM 2 h, co-transfection (FIG. 4B)
Sequence of full length RAGE1-404 (Q15109 23-404): as above

[5] = molecular target: T3, cytosolic tail of MCAM, MCAM584-637 (Homo sapiens, UniProt P43121); assay: Ang II-induced p65 expression in AT1R-CHO cells transfected with cytosolic tail of MCAM; set-up: corresponds to residues 584-637 of MCAM plus an initiating Methionine; initiating Methionine (N); expressed in transfected cells; host or cells: AT1R-CHO (CHO stably transfected with human AT1R-Rluc8); insert in pCIneo; settings: Ang II 1 μM, co-transfection (FIG. 3I)
T3 sequence (P43121 with tags, fused parts or gaps): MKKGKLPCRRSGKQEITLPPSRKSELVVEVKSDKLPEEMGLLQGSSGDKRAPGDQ
Procedure: as §1, §2
Oligonucleotides were designed and ordered to generate the ALCAM, BCAM and MCAM intracellular (cytosolic) domains. […]
as §4

induction of p65-NFκB expression by Ang II via AT1R-dependent transactivation of full length murine ALCAM1-583 ([1]; Ang II 1 μM 2 h, co-transfection of the construct, vs pCIneo (FIG. 3B, 5B)): prevents induction
p65-NFκB dependent induction of PCNA expression by Ang II via full length murine ALCAM1-583 ([1]; Ang II 1 μM, co-transfection (FIG. 3C)): prevents induction
RAGE-dependent induction of ICAM-1 expression following transactivation of RAGE by C5a receptor 1 [3]: inhibits
ligand-dependent signalling (PCNA expression) via murine ALCAM activated by S100A8/A9 [4]: inhibited
ligand-dependent signalling (PCNA expression) via full length RAGE activated by S100A8/A9 (full length RAGE1-404): inhibited
induction of p65-NFκB expression by Ang II via transactivation of MCAM584-637 [5]: prevents induction
Sequence: MKHVNKDLGNMEENKKLEENNHK [ALCAM559-580]
induction of p65-NFκB expression by Ang II via transactivation of full length chicken EpCAM [2]: prevents induction
